This is an account of results in PMC5520056, “Cryo-EM structures of the ATP-bound Vps4^E233Q hexamer and its complex with Vta1 at near-atomic resolution” (Nature Communications, 2017).

B1: Vps4^E233Q (full-length yeast Vps4 containing an mutation) [Saccharomyces cerevisiae] / itself (parent)
chain: MSTGDFLTKGIELVQKAIDLDTATQYEEAYTAYYNGLDYLMLALKYEKNPKSKDLIRAKFTEYLNRAEQLKKHLESEEANAAKKSPSAGSGSNGGNKKISQEEGEDNGGEDNKKLRGALSSAILSEKPNVKWEDVAGLEGAKEALKEAVILPVKFPHLFKGNRKPTSGILLYGPPGTGKSYLAKAVATEANSTFFSVSSSDLVSKWMGESEKLVKQLFAMARENKPSIIFIDQVDALTGTRGEGESEASRRIKTELLVQMNGVGNDSQGVLVLGATNIPWQLDSAIRRRFERRIYIPLPDLAARTTMFEINVGDTPCVLTKEDYRTLGAMTEGYSGSDIAVVVKDALMQPIRKIQSATHFKDVSTEDDETRKLTPCSPGDDGAIEMSWTDIEADELKEPDLTIKDFLKAIKSTRPTVNEDDLLKQEQFTRDFGQEGN

In one assay the parent is B1. Put plainly: SEC. Conditions: with itself; height of the peak at the hexamer elution position (~12 ml); read off a plot.
For MSTGDFLTKGIELVQKAIDLDTATQYEEAYTAYYNGLDYLMLALKYEKNPKSKDLIRAKFTEYLNRAEQLKKHLESEEANAAKKSPSAGSGSNGGNKKISQEEGEDNGGEDNKKLRGALSSAILSEKPNVKWEDVAGLEGAKEALKEAVILPVKFPHLFKGNRKPTSGILLYGPPGTGKSYLAKAVATEANSTFFSVSSSDLVSKWMGESEKLVKQLFAMARENKPSIIFIDQVDALTGTRGEGESEASRRIKTELLVQMNGVGNDSQGVLVLGATNIPWQLDSAIRRAFERRIYIPLPDLAARTTMFEINVGDTPCVLTKEDYRTLGAMTEGYSGSDIAVVVKDALMQPIRKIQSATHFKDVSTEDDETRKLTPCSPGDDGAIEMSWTDIEADELKEPDLTIKDFLKAIKSTRPTVNEDDLLKQEQFTRDFGQEGN [chain 1 R289A], the response is 13 mAU.

Staying with this assay, now noted: with itself; in the presence of ATP; height of the peak at the hexamer elution position (~12 ml); read off a plot.
As to MSTGDFLTKGIELVQKAIDLDTATQYEEAYTAYYNGLDYLMLALKYEKNPKSKDLIRAKFTEYLNRAEQLKKHLESEEANAAKKSPSAGSGSNGGNKKISQEEGEDNGGEDNKKLRGALSSAILSEKPNVKWEDVAGLEGAKEALKEAVILPVKFPHLFKGNRKPTSGILLYGPPGTGKSYLAKAVATEANSTFFSVSSSDLVSKWMGESEKLVAQLFAMARENKPSIIFIDQVDALTGTRGEGESEASRRIKTELLVQMNGVGNDSQGVLVLGATNIPWQLDSAIRRRFERRIYIPLPDLAARTTMFEINVGDTPCVLTKEDYRTLGAMTEGYSGSDIAVVVKDALMQPIRKIQSATHFKDVSTEDDETRKLTPCSPGDDGAIEMSWTDIEADELKEPDLTIKDFLKAIKSTRPTVNEDDLLKQEQFTRDFGQEGN [chain 1 K215A], the response worked out at 88 mAU.
MSTGDFLTKGIELVQKAIDLDTATQYEEAYTAYYNGLDYLMLALKYEKNPKSKDLIRAKFTEYLNRAEQLKKHLESEEANAAKKSPSAGSGSNGGNKKISQEEGEDNGGEDNKKLRGALSSAILSEKPNVKWEDVAGLEGAKEALKEAVILPVKFPHLFKGNRKPTSGILLYGPPGTGKSYLAKAVATEANSTFFSVSSSDLVSKWMGESEKLVKQLFAMARENKPSIIFIDQVDALTGTRGEGESEASRRIKTELLVQMNGVGNDSQGVLVLGATNIPWQLDSAIRRRFERRIYIPLPDLAARTTMFEINVGDTPCVLTKEDYRTLGAMTEGYSGSDIAVVVKDALMQPIRKIQSATHFKDVSTEDDETRKLTPCSPGDDGAIEMSWTDIEADEAKEPDLTIKDFLKAIKSTRPTVNEDDLLKQEQFTRDFGQEGN [chain 1 L396A]: the response was 65 mAU.

Staying with this assay, now noted: with itself; in the presence of ATP; height of the broad peak at the hexamer elution position (~12 ml); read off a plot.
As to MSTGDFLTKGIELVQKAIDLDTATQYEEAYTAYYNGLDYLMLALKYEKNPKSKDLIRAKFTEYLNRAEQLKKHLESEEANAAKKSPSAGSGSNGGNKKISQEEGEDNGGEDNKKLRGALSSAILSEKPNVKWEDVAGLEGAKEALKEAVILPVAAPHLFKGNRKPTSGILLYGPPGTGKSYLAKAVATEANSTFFSVSSSDLVSKWMGESEKLVKQLFAMARENKPSIIFIDQVDALTGTRGEGESEASRRIKTELLVQMNGVGNDSQGVLVLGATNIPWQLDSAIRRRFERRIYIPLPDLAARTTMFEINVGDTPCVLTKEDYRTLGAMTEGYSGSDIAVVVKDALMQPIRKIQSATHFKDVSTEDDETRKLTPCSPGDDGAIEMSWTDIEADELKEPDLTIKDFLKAIKSTRPTVNEDDLLKQEQFTRDFGQEGN [chain 1 K154A F155A], the response worked out at 44 mAU.

The assay is the same for the next values; noted with them: with itself; in the presence of ATP; height of the broad peak at the hexamer elution position (~11.5-12 ml); read off a plot.
As to MSTGDFLTKGIELVQKAIDLDTATQYEEAYTAYYNGLDYLMLALKYEKNPKSKDLIRAKFTEYLNRAEQLKKHLESEEANAAKKSPSAGSGSNGGNKKISQEEGEDNGGEDNKKLRGALSSAILSEKPNVKWEDVAGLEGAKEALKEAVILPVKFPHLFKGNRKPTSGILLYGPPGTGKSYLAKAVATEANSTFFSVSSSDLVSKWMGESEKLVKQLFAMARENKPSIIFIDQVDALTGTRGEGESAASRRIKTELLVQMNGVGNDSQGVLVLGATNIPWQLDSAIRRRFERRIYIPLPDLAARTTMFEINVGDTPCVLTKEDYRTLGAMTEGYSGSDIAVVVKDALMQPIRKIQSATHFKDVSTEDDETRKLTPCSPGDDGAIEMSWTDIEADELKEPDLTIKDFLKAIKSTRPTVNEDDLLKQEQFTRDFGQEGN [chain 1 E247A], the response came out at 72 mAU.

Still in this assay, the particulars now being: with itself; in the presence of ATP; height of the peak at the hexamer elution position (~12.5 ml); read off a plot.
As to MSTGDFLTKGIELVQKAIDLDTATQYEEAYTAYYNGLDYLMLALKYEKNPKSKDLIRAKFTEYLNRAEQLKKHLESEEANAAKKSPSAGSGSNGGNKKISQEEGEDNGGEDNKKLRGALSSAILSEKPNVKWEDVAGLEGAKEALKEAVILPVKFPHLFKGNRKPTSGILLYGPPGTGKSYLAKAVATEANSTFFSVSSSDLVSKWMGESEKLVKQLFAMARENKPSIIFIDQVDALTGTRGEGESEASRRIKTELLVQMNGVGNDSQGVLVLGATNIPWQLDSAIRRRFERRIYIPLPDLAARTTMFEINVGDTPCVLTKEDYRTLGAMTEGYSGSDIAVVVKDALMQPIRKIQSATHFKDVSTEDDETRKLTPCSPGDDGAIEMSWTDIEADELKEPDLTIKDFLKAIKSTRPTVNEDDLLKQEQFTRAFGQEGN [chain 1 D431A], the response was found to be 42 mAU.
